# *1 amine or outer side, *2 acyl side, *3 side chain or, on linkers, in order; H or OH if unused. Side-chain parts run from the residue outwards. The star is where a group is joined. C18 diacid = O=C(O)CCCCCCCCCCCCCCCCC(=O)*; γGlu = O=C(O)[C@H](CCC(=O)[*:2])N[*:1]; Isovaleryl = CC(C)CC(=O)*; Ahx = NCCCCCC(=O)O
# T1: human NPY2 receptor (human, UniProt P49146 1-381)
# T1 construct: whole, on cells; also called hNPY2-R; hNPY2R
# T1 sequence (looked up): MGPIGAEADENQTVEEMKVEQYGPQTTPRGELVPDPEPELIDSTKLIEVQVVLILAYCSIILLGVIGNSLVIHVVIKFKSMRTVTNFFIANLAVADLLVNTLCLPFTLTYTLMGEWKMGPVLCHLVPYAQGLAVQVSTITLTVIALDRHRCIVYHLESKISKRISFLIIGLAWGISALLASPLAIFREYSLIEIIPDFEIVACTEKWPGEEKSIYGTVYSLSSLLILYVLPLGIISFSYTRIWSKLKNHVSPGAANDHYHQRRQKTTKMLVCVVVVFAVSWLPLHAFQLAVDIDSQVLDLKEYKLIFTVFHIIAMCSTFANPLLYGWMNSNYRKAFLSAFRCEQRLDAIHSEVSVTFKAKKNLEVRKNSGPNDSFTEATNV
# B1: Compound 169 (peptide)
# peptide: Isovaleryl-APEK([Ahx-γGlu-C18 diacid])PEEDAEPEELQAYYVSLRHYYNWLTRQRY-NH2
# SMILES: CC(C)CC(=O)N[C@@H](C)C(=O)N1CCC[C@H]1C(=O)N[C@@H](CCC(=O)O)C(=O)N[C@@H](CCCCNC(=O)CCCCCNC(=O)CC[C@H](NC(=O)CCCCCCCCCCCCCCCCC(=O)O)C(=O)O)C(=O)N1CCC[C@H]1C(=O)N[C@@H](CCC(=O)O)C(=O)N[C@@H](CCC(=O)O)C(=O)N[C@@H](CC(=O)O)C(=O)N[C@@H](C)C(=O)N[C@@H](CCC(=O)O)C(=O)N1CCC[C@H]1C(=O)N[C@@H](CCC(=O)O)C(=O)N[C@@H](CCC(=O)O)C(=O)N[C@@H](CC(C)C)C(=O)N[C@@H](CCC(N)=O)C(=O)N[C@@H](C)C(=O)N[C@@H](Cc1ccc(O)cc1)C(=O)N[C@@H](Cc1ccc(O)cc1)C(=O)N[C@H](C(=O)N[C@@H](CO)C(=O)N[C@@H](CC(C)C)C(=O)N[C@@H](CCCNC(=N)N)C(=O)N[C@@H](Cc1c[nH]cn1)C(=O)N[C@@H](Cc1ccc(O)cc1)C(=O)N[C@@H](Cc1ccc(O)cc1)C(=O)N[C@@H](CC(N)=O)C(=O)N[C@@H](Cc1c[nH]c2ccccc12)C(=O)N[C@@H](CC(C)C)C(=O)N[C@H](C(=O)N[C@@H](CCCNC(=N)N)C(=O)N[C@@H](CCC(N)=O)C(=O)N[C@@H](CCCNC(=N)N)C(=O)N[C@@H](Cc1ccc(O)cc1)C(N)=O)[C@@H](C)O)C(C)C
# B2: Compound 171 (peptide)
# peptide: Isovaleryl-APEK([Ahx-γGlu-C18 diacid])PEADASPEELQRYYVELRHYYNWLTRQRY-NH2
# SMILES: CC(C)CC(=O)N[C@@H](C)C(=O)N1CCC[C@H]1C(=O)N[C@@H](CCC(=O)O)C(=O)N[C@@H](CCCCNC(=O)CCCCCNC(=O)CC[C@H](NC(=O)CCCCCCCCCCCCCCCCC(=O)O)C(=O)O)C(=O)N1CCC[C@H]1C(=O)N[C@@H](CCC(=O)O)C(=O)N[C@@H](C)C(=O)N[C@@H](CC(=O)O)C(=O)N[C@@H](C)C(=O)N[C@@H](CO)C(=O)N1CCC[C@H]1C(=O)N[C@@H](CCC(=O)O)C(=O)N[C@@H](CCC(=O)O)C(=O)N[C@@H](CC(C)C)C(=O)N[C@@H](CCC(N)=O)C(=O)N[C@@H](CCCNC(=N)N)C(=O)N[C@@H](Cc1ccc(O)cc1)C(=O)N[C@@H](Cc1ccc(O)cc1)C(=O)N[C@H](C(=O)N[C@@H](CCC(=O)O)C(=O)N[C@@H](CC(C)C)C(=O)N[C@@H](CCCNC(=N)N)C(=O)N[C@@H](Cc1c[nH]cn1)C(=O)N[C@@H](Cc1ccc(O)cc1)C(=O)N[C@@H](Cc1ccc(O)cc1)C(=O)N[C@@H](CC(N)=O)C(=O)N[C@@H](Cc1c[nH]c2ccccc12)C(=O)N[C@@H](CC(C)C)C(=O)N[C@H](C(=O)N[C@@H](CCCNC(=N)N)C(=O)N[C@@H](CCC(N)=O)C(=O)N[C@@H](CCCNC(=N)N)C(=O)N[C@@H](Cc1ccc(O)cc1)C(N)=O)[C@@H](C)O)C(C)C
# B3: Compound 170 (peptide)
# peptide: Isovaleryl-APEK([Ahx-γGlu-C18 diacid])PEEDAAPEEIQRYYVSLRHYYNWLTRQRY-NH2
# SMILES: CC[C@H](C)[C@H](NC(=O)[C@H](CCC(=O)O)NC(=O)[C@H](CCC(=O)O)NC(=O)[C@@H]1CCCN1C(=O)[C@H](C)NC(=O)[C@H](C)NC(=O)[C@H](CC(=O)O)NC(=O)[C@H](CCC(=O)O)NC(=O)[C@H](CCC(=O)O)NC(=O)[C@@H]1CCCN1C(=O)[C@H](CCCCNC(=O)CCCCCNC(=O)CC[C@H](NC(=O)CCCCCCCCCCCCCCCCC(=O)O)C(=O)O)NC(=O)[C@H](CCC(=O)O)NC(=O)[C@@H]1CCCN1C(=O)[C@H](C)NC(=O)CC(C)C)C(=O)N[C@@H](CCC(N)=O)C(=O)N[C@@H](CCCNC(=N)N)C(=O)N[C@@H](Cc1ccc(O)cc1)C(=O)N[C@@H](Cc1ccc(O)cc1)C(=O)N[C@H](C(=O)N[C@@H](CO)C(=O)N[C@@H](CC(C)C)C(=O)N[C@@H](CCCNC(=N)N)C(=O)N[C@@H](Cc1c[nH]cn1)C(=O)N[C@@H](Cc1ccc(O)cc1)C(=O)N[C@@H](Cc1ccc(O)cc1)C(=O)N[C@@H](CC(N)=O)C(=O)N[C@@H](Cc1c[nH]c2ccccc12)C(=O)N[C@@H](CC(C)C)C(=O)N[C@H](C(=O)N[C@@H](CCCNC(=N)N)C(=O)N[C@@H](CCC(N)=O)C(=O)N[C@@H](CCCNC(=N)N)C(=O)N[C@@H](Cc1ccc(O)cc1)C(N)=O)[C@@H](C)O)C(C)C
# B4: Compound 179 (peptide)
# peptide: Isovaleryl-APEK([Ahx-γGlu-C18 diacid])PEADASPEETQRYYVALRHYYNWLTRQRY-NH2
# SMILES: CC(C)CC(=O)N[C@@H](C)C(=O)N1CCC[C@H]1C(=O)N[C@@H](CCC(=O)O)C(=O)N[C@@H](CCCCNC(=O)CCCCCNC(=O)CC[C@H](NC(=O)CCCCCCCCCCCCCCCCC(=O)O)C(=O)O)C(=O)N1CCC[C@H]1C(=O)N[C@@H](CCC(=O)O)C(=O)N[C@@H](C)C(=O)N[C@@H](CC(=O)O)C(=O)N[C@@H](C)C(=O)N[C@@H](CO)C(=O)N1CCC[C@H]1C(=O)N[C@@H](CCC(=O)O)C(=O)N[C@@H](CCC(=O)O)C(=O)N[C@H](C(=O)N[C@@H](CCC(N)=O)C(=O)N[C@@H](CCCNC(=N)N)C(=O)N[C@@H](Cc1ccc(O)cc1)C(=O)N[C@@H](Cc1ccc(O)cc1)C(=O)N[C@H](C(=O)N[C@@H](C)C(=O)N[C@@H](CC(C)C)C(=O)N[C@@H](CCCNC(=N)N)C(=O)N[C@@H](Cc1c[nH]cn1)C(=O)N[C@@H](Cc1ccc(O)cc1)C(=O)N[C@@H](Cc1ccc(O)cc1)C(=O)N[C@@H](CC(N)=O)C(=O)N[C@@H](Cc1c[nH]c2ccccc12)C(=O)N[C@@H](CC(C)C)C(=O)N[C@H](C(=O)N[C@@H](CCCNC(=N)N)C(=O)N[C@@H](CCC(N)=O)C(=O)N[C@@H](CCCNC(=N)N)C(=O)N[C@@H](Cc1ccc(O)cc1)C(N)=O)[C@@H](C)O)C(C)C)[C@@H](C)O
# B5: Compound 178 (peptide)
# peptide: Isovaleryl-APEK([Ahx-γGlu-C18 diacid])PEAAATPEEIQRYYVALRHYYNWLTRQRY-NH2
# SMILES: CC[C@H](C)[C@H](NC(=O)[C@H](CCC(=O)O)NC(=O)[C@H](CCC(=O)O)NC(=O)[C@@H]1CCCN1C(=O)[C@@H](NC(=O)[C@H](C)NC(=O)[C@H](C)NC(=O)[C@H](C)NC(=O)[C@H](CCC(=O)O)NC(=O)[C@@H]1CCCN1C(=O)[C@H](CCCCNC(=O)CCCCCNC(=O)CC[C@H](NC(=O)CCCCCCCCCCCCCCCCC(=O)O)C(=O)O)NC(=O)[C@H](CCC(=O)O)NC(=O)[C@@H]1CCCN1C(=O)[C@H](C)NC(=O)CC(C)C)[C@@H](C)O)C(=O)N[C@@H](CCC(N)=O)C(=O)N[C@@H](CCCNC(=N)N)C(=O)N[C@@H](Cc1ccc(O)cc1)C(=O)N[C@@H](Cc1ccc(O)cc1)C(=O)N[C@H](C(=O)N[C@@H](C)C(=O)N[C@@H](CC(C)C)C(=O)N[C@@H](CCCNC(=N)N)C(=O)N[C@@H](Cc1c[nH]cn1)C(=O)N[C@@H](Cc1ccc(O)cc1)C(=O)N[C@@H](Cc1ccc(O)cc1)C(=O)N[C@@H](CC(N)=O)C(=O)N[C@@H](Cc1c[nH]c2ccccc12)C(=O)N[C@@H](CC(C)C)C(=O)N[C@H](C(=O)N[C@@H](CCCNC(=N)N)C(=O)N[C@@H](CCC(N)=O)C(=O)N[C@@H](CCCNC(=N)N)C(=O)N[C@@H](Cc1ccc(O)cc1)C(N)=O)[C@@H](C)O)C(C)C
# B6: Compound 177 (peptide)
# peptide: Isovaleryl-APEK([Ahx-γGlu-C18 diacid])PEEDATPEELQQYYVSLRHYYNWLTRQRY-NH2
# SMILES: CC(C)CC(=O)N[C@@H](C)C(=O)N1CCC[C@H]1C(=O)N[C@@H](CCC(=O)O)C(=O)N[C@@H](CCCCNC(=O)CCCCCNC(=O)CC[C@H](NC(=O)CCCCCCCCCCCCCCCCC(=O)O)C(=O)O)C(=O)N1CCC[C@H]1C(=O)N[C@@H](CCC(=O)O)C(=O)N[C@@H](CCC(=O)O)C(=O)N[C@@H](CC(=O)O)C(=O)N[C@@H](C)C(=O)N[C@H](C(=O)N1CCC[C@H]1C(=O)N[C@@H](CCC(=O)O)C(=O)N[C@@H](CCC(=O)O)C(=O)N[C@@H](CC(C)C)C(=O)N[C@@H](CCC(N)=O)C(=O)N[C@@H](CCC(N)=O)C(=O)N[C@@H](Cc1ccc(O)cc1)C(=O)N[C@@H](Cc1ccc(O)cc1)C(=O)N[C@H](C(=O)N[C@@H](CO)C(=O)N[C@@H](CC(C)C)C(=O)N[C@@H](CCCNC(=N)N)C(=O)N[C@@H](Cc1c[nH]cn1)C(=O)N[C@@H](Cc1ccc(O)cc1)C(=O)N[C@@H](Cc1ccc(O)cc1)C(=O)N[C@@H](CC(N)=O)C(=O)N[C@@H](Cc1c[nH]c2ccccc12)C(=O)N[C@@H](CC(C)C)C(=O)N[C@H](C(=O)N[C@@H](CCCNC(=N)N)C(=O)N[C@@H](CCC(N)=O)C(=O)N[C@@H](CCCNC(=N)N)C(=O)N[C@@H](Cc1ccc(O)cc1)C(N)=O)[C@@H](C)O)C(C)C)[C@@H](C)O
# Molecular target: T1, human NPY2 receptor
# Assay: RLB: displacement of 125I-PYY(1-36) from hNPY2R membranes
row,Ki [nM],Binder
1,5.82,B1
2,2.83,B2
3,2.28,B3
4,0.89,B4
5,3.39,B5
6,8.65,B6

# Reference: US20260015399A1 (Boehringer Ingelheim, published 2026)
